Measured values from US20210388087A1 (Chugai, published 2021).

B1: CE115HA000/GLS3000 N30T (antibody, IgG1, name in Kabat numbering, V domains shown)
VH: QVQLVESGGGVVQPGRSLRLSCAASGFTFSNAWMHWVRQAPGKGLEWVAQIKAKSNNYATYYAESVKGRFTISRDDSKNSLYLQMNSLKTEDTAVYYCRYVHYGAYYGVDAWGQGTTVTVSS
VL: DIVMTQSPLSLPVTPGEPASISCRSSQSLVHSNRTTYLHWYQQKPGQAPRLLIYKVSNRFSGVPDRFSGSGSGTDFTLKISRVEAEDVGVYYCGQGTQVPYTFGQGTKLEIK
notes: one-arm IgG1
B2: CE115HA000/GLS3000 N53E (antibody, IgG1, name in Kabat numbering, V domains shown)
VH: QVQLVESGGGVVQPGRSLRLSCAASGFTFSNAWMHWVRQAPGKGLEWVAQIKAKSNNYATYYAESVKGRFTISRDDSKNSLYLQMNSLKTEDTAVYYCRYVHYGAYYGVDAWGQGTTVTVSS
VL: DIVMTQSPLSLPVTPGEPASISCRSSQSLVHSNRNTYLHWYQQKPGQAPRLLIYKVSERFSGVPDRFSGSGSGTDFTLKISRVEAEDVGVYYCGQGTQVPYTFGQGTKLEIK
notes: one-arm IgG1
B3: CE115HA000/GLS3000 N53R (antibody, IgG1, name in Kabat numbering, V domains shown)
VH: QVQLVESGGGVVQPGRSLRLSCAASGFTFSNAWMHWVRQAPGKGLEWVAQIKAKSNNYATYYAESVKGRFTISRDDSKNSLYLQMNSLKTEDTAVYYCRYVHYGAYYGVDAWGQGTTVTVSS
VL: DIVMTQSPLSLPVTPGEPASISCRSSQSLVHSNRNTYLHWYQQKPGQAPRLLIYKVSRRFSGVPDRFSGSGSGTDFTLKISRVEAEDVGVYYCGQGTQVPYTFGQGTKLEIK
notes: one-arm IgG1
B4: CE115HA000/GLS3000 N53W (antibody, IgG1, name in Kabat numbering, V domains shown)
VH: QVQLVESGGGVVQPGRSLRLSCAASGFTFSNAWMHWVRQAPGKGLEWVAQIKAKSNNYATYYAESVKGRFTISRDDSKNSLYLQMNSLKTEDTAVYYCRYVHYGAYYGVDAWGQGTTVTVSS
VL: DIVMTQSPLSLPVTPGEPASISCRSSQSLVHSNRNTYLHWYQQKPGQAPRLLIYKVSWRFSGVPDRFSGSGSGTDFTLKISRVEAEDVGVYYCGQGTQVPYTFGQGTKLEIK
notes: one-arm IgG1
B5: CE115HA000/GLS3000 N53P (antibody, IgG1, name in Kabat numbering, V domains shown)
VH: QVQLVESGGGVVQPGRSLRLSCAASGFTFSNAWMHWVRQAPGKGLEWVAQIKAKSNNYATYYAESVKGRFTISRDDSKNSLYLQMNSLKTEDTAVYYCRYVHYGAYYGVDAWGQGTTVTVSS
VL: DIVMTQSPLSLPVTPGEPASISCRSSQSLVHSNRNTYLHWYQQKPGQAPRLLIYKVSPRFSGVPDRFSGSGSGTDFTLKISRVEAEDVGVYYCGQGTQVPYTFGQGTKLEIK
notes: one-arm IgG1
B6: CE115HA000/GLS3000 N53K (antibody, IgG1, name in Kabat numbering, V domains shown)
VH: QVQLVESGGGVVQPGRSLRLSCAASGFTFSNAWMHWVRQAPGKGLEWVAQIKAKSNNYATYYAESVKGRFTISRDDSKNSLYLQMNSLKTEDTAVYYCRYVHYGAYYGVDAWGQGTTVTVSS
VL: DIVMTQSPLSLPVTPGEPASISCRSSQSLVHSNRNTYLHWYQQKPGQAPRLLIYKVSKRFSGVPDRFSGSGSGTDFTLKISRVEAEDVGVYYCGQGTQVPYTFGQGTKLEIK
notes: one-arm IgG1
B7: CE115HA000/GLS3000 N53Q (antibody, IgG1, name in Kabat numbering, V domains shown)
VH: QVQLVESGGGVVQPGRSLRLSCAASGFTFSNAWMHWVRQAPGKGLEWVAQIKAKSNNYATYYAESVKGRFTISRDDSKNSLYLQMNSLKTEDTAVYYCRYVHYGAYYGVDAWGQGTTVTVSS
VL: DIVMTQSPLSLPVTPGEPASISCRSSQSLVHSNRNTYLHWYQQKPGQAPRLLIYKVSQRFSGVPDRFSGSGSGTDFTLKISRVEAEDVGVYYCGQGTQVPYTFGQGTKLEIK
notes: one-arm IgG1
B8: CE115HA000/GLS3000 N53T (antibody, IgG1, name in Kabat numbering, V domains shown)
VH: QVQLVESGGGVVQPGRSLRLSCAASGFTFSNAWMHWVRQAPGKGLEWVAQIKAKSNNYATYYAESVKGRFTISRDDSKNSLYLQMNSLKTEDTAVYYCRYVHYGAYYGVDAWGQGTTVTVSS
VL: DIVMTQSPLSLPVTPGEPASISCRSSQSLVHSNRNTYLHWYQQKPGQAPRLLIYKVSTRFSGVPDRFSGSGSGTDFTLKISRVEAEDVGVYYCGQGTQVPYTFGQGTKLEIK
notes: one-arm IgG1
B9: CE115HA000/GLS3000 N53G (antibody, IgG1, name in Kabat numbering, V domains shown)
VH: QVQLVESGGGVVQPGRSLRLSCAASGFTFSNAWMHWVRQAPGKGLEWVAQIKAKSNNYATYYAESVKGRFTISRDDSKNSLYLQMNSLKTEDTAVYYCRYVHYGAYYGVDAWGQGTTVTVSS
VL: DIVMTQSPLSLPVTPGEPASISCRSSQSLVHSNRNTYLHWYQQKPGQAPRLLIYKVSGRFSGVPDRFSGSGSGTDFTLKISRVEAEDVGVYYCGQGTQVPYTFGQGTKLEIK
notes: one-arm IgG1
B10: CE115HA000/GLS3000 N53S (antibody, IgG1, name in Kabat numbering, V domains shown)
VH: QVQLVESGGGVVQPGRSLRLSCAASGFTFSNAWMHWVRQAPGKGLEWVAQIKAKSNNYATYYAESVKGRFTISRDDSKNSLYLQMNSLKTEDTAVYYCRYVHYGAYYGVDAWGQGTTVTVSS
VL: DIVMTQSPLSLPVTPGEPASISCRSSQSLVHSNRNTYLHWYQQKPGQAPRLLIYKVSSRFSGVPDRFSGSGSGTDFTLKISRVEAEDVGVYYCGQGTQVPYTFGQGTKLEIK
notes: one-arm IgG1
B11: CE115HA000/GLS3000 N53I (antibody, IgG1, name in Kabat numbering, V domains shown)
VH: QVQLVESGGGVVQPGRSLRLSCAASGFTFSNAWMHWVRQAPGKGLEWVAQIKAKSNNYATYYAESVKGRFTISRDDSKNSLYLQMNSLKTEDTAVYYCRYVHYGAYYGVDAWGQGTTVTVSS
VL: DIVMTQSPLSLPVTPGEPASISCRSSQSLVHSNRNTYLHWYQQKPGQAPRLLIYKVSIRFSGVPDRFSGSGSGTDFTLKISRVEAEDVGVYYCGQGTQVPYTFGQGTKLEIK
notes: one-arm IgG1
B12: CE115HA000/GLS3000 N53L (antibody, IgG1, name in Kabat numbering, V domains shown)
VH: QVQLVESGGGVVQPGRSLRLSCAASGFTFSNAWMHWVRQAPGKGLEWVAQIKAKSNNYATYYAESVKGRFTISRDDSKNSLYLQMNSLKTEDTAVYYCRYVHYGAYYGVDAWGQGTTVTVSS
VL: DIVMTQSPLSLPVTPGEPASISCRSSQSLVHSNRNTYLHWYQQKPGQAPRLLIYKVSLRFSGVPDRFSGSGSGTDFTLKISRVEAEDVGVYYCGQGTQVPYTFGQGTKLEIK
notes: one-arm IgG1
B13: CE115HA000/GLS3000 N30Y (antibody, IgG1, name in Kabat numbering, V domains shown)
VH: QVQLVESGGGVVQPGRSLRLSCAASGFTFSNAWMHWVRQAPGKGLEWVAQIKAKSNNYATYYAESVKGRFTISRDDSKNSLYLQMNSLKTEDTAVYYCRYVHYGAYYGVDAWGQGTTVTVSS
VL: DIVMTQSPLSLPVTPGEPASISCRSSQSLVHSNRYTYLHWYQQKPGQAPRLLIYKVSNRFSGVPDRFSGSGSGTDFTLKISRVEAEDVGVYYCGQGTQVPYTFGQGTKLEIK
notes: one-arm IgG1
B14: CE115HA000/GLS3000 N30V (antibody, IgG1, name in Kabat numbering, V domains shown)
VH: QVQLVESGGGVVQPGRSLRLSCAASGFTFSNAWMHWVRQAPGKGLEWVAQIKAKSNNYATYYAESVKGRFTISRDDSKNSLYLQMNSLKTEDTAVYYCRYVHYGAYYGVDAWGQGTTVTVSS
VL: DIVMTQSPLSLPVTPGEPASISCRSSQSLVHSNRVTYLHWYQQKPGQAPRLLIYKVSNRFSGVPDRFSGSGSGTDFTLKISRVEAEDVGVYYCGQGTQVPYTFGQGTKLEIK
notes: one-arm IgG1
B15: CE115HA000/GLS3000 N53M (antibody, IgG1, name in Kabat numbering, V domains shown)
VH: QVQLVESGGGVVQPGRSLRLSCAASGFTFSNAWMHWVRQAPGKGLEWVAQIKAKSNNYATYYAESVKGRFTISRDDSKNSLYLQMNSLKTEDTAVYYCRYVHYGAYYGVDAWGQGTTVTVSS
VL: DIVMTQSPLSLPVTPGEPASISCRSSQSLVHSNRNTYLHWYQQKPGQAPRLLIYKVSMRFSGVPDRFSGSGSGTDFTLKISRVEAEDVGVYYCGQGTQVPYTFGQGTKLEIK
notes: one-arm IgG1
B16: CE115HA000/GLS3000 N53D (antibody, IgG1, name in Kabat numbering, V domains shown)
VH: QVQLVESGGGVVQPGRSLRLSCAASGFTFSNAWMHWVRQAPGKGLEWVAQIKAKSNNYATYYAESVKGRFTISRDDSKNSLYLQMNSLKTEDTAVYYCRYVHYGAYYGVDAWGQGTTVTVSS
VL: DIVMTQSPLSLPVTPGEPASISCRSSQSLVHSNRNTYLHWYQQKPGQAPRLLIYKVSDRFSGVPDRFSGSGSGTDFTLKISRVEAEDVGVYYCGQGTQVPYTFGQGTKLEIK
notes: one-arm IgG1
B17: CE115HA000/GLS3000 N53H (antibody, IgG1, name in Kabat numbering, V domains shown)
VH: QVQLVESGGGVVQPGRSLRLSCAASGFTFSNAWMHWVRQAPGKGLEWVAQIKAKSNNYATYYAESVKGRFTISRDDSKNSLYLQMNSLKTEDTAVYYCRYVHYGAYYGVDAWGQGTTVTVSS
VL: DIVMTQSPLSLPVTPGEPASISCRSSQSLVHSNRNTYLHWYQQKPGQAPRLLIYKVSHRFSGVPDRFSGSGSGTDFTLKISRVEAEDVGVYYCGQGTQVPYTFGQGTKLEIK
notes: one-arm IgG1
B18: CE115HA000/GLS3000 N53A (antibody, IgG1, name in Kabat numbering, V domains shown)
VH: QVQLVESGGGVVQPGRSLRLSCAASGFTFSNAWMHWVRQAPGKGLEWVAQIKAKSNNYATYYAESVKGRFTISRDDSKNSLYLQMNSLKTEDTAVYYCRYVHYGAYYGVDAWGQGTTVTVSS
VL: DIVMTQSPLSLPVTPGEPASISCRSSQSLVHSNRNTYLHWYQQKPGQAPRLLIYKVSARFSGVPDRFSGSGSGTDFTLKISRVEAEDVGVYYCGQGTQVPYTFGQGTKLEIK
notes: one-arm IgG1
B19: CE115HA000/GLS3000 N53F (antibody, IgG1, name in Kabat numbering, V domains shown)
VH: QVQLVESGGGVVQPGRSLRLSCAASGFTFSNAWMHWVRQAPGKGLEWVAQIKAKSNNYATYYAESVKGRFTISRDDSKNSLYLQMNSLKTEDTAVYYCRYVHYGAYYGVDAWGQGTTVTVSS
VL: DIVMTQSPLSLPVTPGEPASISCRSSQSLVHSNRNTYLHWYQQKPGQAPRLLIYKVSFRFSGVPDRFSGSGSGTDFTLKISRVEAEDVGVYYCGQGTQVPYTFGQGTKLEIK
notes: one-arm IgG1
B20: CE115HA000/GLS3000 N53V (antibody, IgG1, name in Kabat numbering, V domains shown)
VH: QVQLVESGGGVVQPGRSLRLSCAASGFTFSNAWMHWVRQAPGKGLEWVAQIKAKSNNYATYYAESVKGRFTISRDDSKNSLYLQMNSLKTEDTAVYYCRYVHYGAYYGVDAWGQGTTVTVSS
VL: DIVMTQSPLSLPVTPGEPASISCRSSQSLVHSNRNTYLHWYQQKPGQAPRLLIYKVSVRFSGVPDRFSGSGSGTDFTLKISRVEAEDVGVYYCGQGTQVPYTFGQGTKLEIK
notes: one-arm IgG1
B21: CE115HA000/GLS3000 N30W (antibody, IgG1, name in Kabat numbering, V domains shown)
VH: QVQLVESGGGVVQPGRSLRLSCAASGFTFSNAWMHWVRQAPGKGLEWVAQIKAKSNNYATYYAESVKGRFTISRDDSKNSLYLQMNSLKTEDTAVYYCRYVHYGAYYGVDAWGQGTTVTVSS
VL: DIVMTQSPLSLPVTPGEPASISCRSSQSLVHSNRWTYLHWYQQKPGQAPRLLIYKVSNRFSGVPDRFSGSGSGTDFTLKISRVEAEDVGVYYCGQGTQVPYTFGQGTKLEIK
notes: one-arm IgG1

biological target: T1, CD3 epsilon homodimer protein (UniProt P07766 23-126); test: SPR, antibody over immobilised CD3e homodimer;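 also: SPR at 25 °C with CD3 epsilon homodimer amine-coupled to a CM4 sensor chip and antibody flowed over as analyte in HBS-EP+ running buffer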
T1 construct: also called CD3 (CD3 epsilon)
T1 sequence (P07766 23-126): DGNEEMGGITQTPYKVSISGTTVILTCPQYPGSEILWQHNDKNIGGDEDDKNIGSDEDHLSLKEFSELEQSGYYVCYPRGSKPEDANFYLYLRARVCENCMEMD

| Binder | KD ratio to GLS3000 |
| --- | --- |
| B1 | 12.7 |
| B2 | 2.47 |
| B3 | 1.56 |
| B4 | 1.01 |
| B5 | 0.98 |
| B6 | 1.05 |
| B7 | 1.28 |
| B8 | 2.68 |
| B9 | 1.33 |
| B10 | 0.88 |
| B11 | 2.69 |
| B12 | 1.62 |
| B13 | 1.03 |
| B14 | 2.62 |
| B15 | 1.21 |
| B16 | 2.8 |
| B17 | 1.31 |
| B18 | 0.82 |
| B19 | 0.96 |
| B20 | 2.14 |
| B21 | 0.97 |
